Reference: article PMC3526858 (Biochemical Journal, 2012)

Legend:
[1] = molecular target: EssBΔC, EssB truncated by 43 C-terminal residues, detergent-solubilised (S. aureus subsp. aureus) (UniProt Q2G185); test: SEC
[2] = molecular target: EssB-N, N-terminal cytoplasmic fragment of EssB (residues 12-226) (S. aureus subsp. aureus) (UniProt Q2G185); test: native gel or EMSA
[3] = molecular target: the molecule itself; test: native gel or EMSA

| Molecule | stoichiometry N [3] | other results |
| --- | --- | --- |
| EssBΔC, EssB truncated by 43 C-terminal residues, detergent-solubilised (from UniProt Q2G185 1-400) (domain or fragment) | – | stoichiometry N [1]: 2 |
| EssB-N, N-terminal cytoplasmic fragment of EssB (residues 12-226) (from UniProt Q2G185 12-226) (domain or fragment) | – | stoichiometry N [2]: 2 |
| Full-length EssB (S. aureus), detergent-solubilised (natural protein, S. aureus subsp. aureus) GASMVKNHNPKNEMQDMLTPLDAEEAAKTKLRLDMREIPKSSIKPEHFHLMYLLEQHSPYFIDAELTELRDSFQIHYDINDNHTPFDNIKSFTKNEKLRYLLNIKNLEEVNRTRYTFVLAPDELFFTRDGLPIAKTRGLQNVVDPLPVSEAEFLTRYKALVICAFNEKQSFDALVEGNLELHKGTPFETKVIEAATLDLLTAFLDEQYQKQEQDYSQNYAYVRKVGHTVFKWVAIGMTTLSVLLIAFLAFLYFSVMKHNERIEKGYQAFVKDDYTQVLNTYDDLDGKKLDKEALYIYAKSYIQTNKQGLEKDKKENLLNNVTPNSNKDYLLYWMELGQGHLDEAINIATYLDDNDITKLALINKLNEIKNNGDLSNDKRSEETKKYNDKLQDILDKEKQVKDEKAKSEEEKAKAKDEKLKQQEENEKKQKEQAQKDKEKRQEAERKK | 2 | – |
| EssB-C, C-terminal fragment of EssB (residues 257-444) (domain or fragment, S. aureus subsp. aureus) GASERIEKGYQAFVKDDYTQVLNTYDDLDGKKLDKEALYIYAKSYIQTNKQGLEKDKKENLLNNVTPNSNKDYLLYWMELGQGHLDEAINIATYLDDNDITKLALINKLNEIKNNGDLSNDKRSEETKKYNDKLQDILDKEKQVKDEKAKSEEEKAKAKDEKLKQQEENEKKQKEQAQKDKEKRQEAERKK | 2 | – |
